Test results: publication PMC4349446

Target: Recombinant truncated LOX-1 (61–273 amino acids, extracellular domain) with a hexa-histidine tag (human) (UniProt P78380)
Assay: ELISA; human LOX-1 (1 μg/ml) coated on wells; hSAA3 peptide 10–2,000 ng/ml in PBS-0.05% Tween20–0.5% Triton X-100; retained peptide detected with monoclonal anti-hSAA3-HRP

hSAA3 C-terminal 26 mer synthetic peptide
Kd: 99 nM
